This is an account of results in patent US20220332804A1 (CSL INNOVATION, published 2022).

Changes are numbered by the printed parent chain. In names and notes the source's numbering stands.

The target in test [1] is T1, cynomolgus monkey C2 (cynomolgus monkey, UniProt G8F3W0 21-752).
T1 construct: also called cyno C2
T1 sequence: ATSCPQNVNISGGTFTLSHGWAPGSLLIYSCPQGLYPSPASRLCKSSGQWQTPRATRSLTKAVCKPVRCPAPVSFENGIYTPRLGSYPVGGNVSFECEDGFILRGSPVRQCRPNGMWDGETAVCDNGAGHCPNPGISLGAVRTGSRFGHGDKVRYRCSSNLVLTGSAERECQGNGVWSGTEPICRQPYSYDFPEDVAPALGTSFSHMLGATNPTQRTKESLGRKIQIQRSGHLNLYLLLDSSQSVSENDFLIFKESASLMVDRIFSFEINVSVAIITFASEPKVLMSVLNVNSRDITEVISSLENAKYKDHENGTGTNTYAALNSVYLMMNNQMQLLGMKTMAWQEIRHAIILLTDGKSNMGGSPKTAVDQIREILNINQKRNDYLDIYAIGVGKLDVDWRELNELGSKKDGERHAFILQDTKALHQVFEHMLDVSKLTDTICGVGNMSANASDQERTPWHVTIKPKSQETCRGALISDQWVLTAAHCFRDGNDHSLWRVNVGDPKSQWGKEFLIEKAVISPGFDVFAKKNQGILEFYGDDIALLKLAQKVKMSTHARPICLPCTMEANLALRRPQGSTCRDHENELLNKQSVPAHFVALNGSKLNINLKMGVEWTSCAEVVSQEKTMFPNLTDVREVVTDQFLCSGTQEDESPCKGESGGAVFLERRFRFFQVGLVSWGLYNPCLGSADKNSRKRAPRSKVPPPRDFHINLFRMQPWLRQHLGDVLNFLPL
Put plainly: SPR, mAb captured, cyno C2 analyte, pH 6.0.
Procedure: (§1) Surface plasmon resonance (SPR, Biacore) was used for all binding affinity analyses. In brief, goat anti-human IgG was directly immobilised onto the carboxymethyl dextran surface of CM5 sensorchips to approximately 12,000 RU using standard NHS/EDC chemistry at pH 5. The immobilised antibody surface was pre-conditioned with ten injections of polyclonal human IgG (Privigen 60 s) prepared at 1 μg/mL. Ligands (anti-C2 mAbs) were captured at the beginning of each cycle as described below. An adjacent spot or flow cell in which only Polyclonal IgG was capture was used as a reference surface. The goat anti-human IgG Fc antibody surface was regenerate in 100 mM H3PO4, injected for 45 seconds at the end of each cycle. Experiments were performed at 37° C. and the flow rate of each experiment was kept constant at 30 μL/min.
(§2) In addition to human C2, the pH dependent anti-C2 antibodies were also tested for their ability to bind to C2 from other mammalian species using the SPR methods described above in order to identify suitable surrogate species for in vivo testing. The antibodies were tested for binding at neutral pH against C2 from cynomolgus monkeys, mice, dogs, rabbits, rats, pigs, and sheep.

For test [2], the target named is T2, mouse C2 (mouse, UniProt P21180 19-760, limits assumed).
T2 sequence (looked up): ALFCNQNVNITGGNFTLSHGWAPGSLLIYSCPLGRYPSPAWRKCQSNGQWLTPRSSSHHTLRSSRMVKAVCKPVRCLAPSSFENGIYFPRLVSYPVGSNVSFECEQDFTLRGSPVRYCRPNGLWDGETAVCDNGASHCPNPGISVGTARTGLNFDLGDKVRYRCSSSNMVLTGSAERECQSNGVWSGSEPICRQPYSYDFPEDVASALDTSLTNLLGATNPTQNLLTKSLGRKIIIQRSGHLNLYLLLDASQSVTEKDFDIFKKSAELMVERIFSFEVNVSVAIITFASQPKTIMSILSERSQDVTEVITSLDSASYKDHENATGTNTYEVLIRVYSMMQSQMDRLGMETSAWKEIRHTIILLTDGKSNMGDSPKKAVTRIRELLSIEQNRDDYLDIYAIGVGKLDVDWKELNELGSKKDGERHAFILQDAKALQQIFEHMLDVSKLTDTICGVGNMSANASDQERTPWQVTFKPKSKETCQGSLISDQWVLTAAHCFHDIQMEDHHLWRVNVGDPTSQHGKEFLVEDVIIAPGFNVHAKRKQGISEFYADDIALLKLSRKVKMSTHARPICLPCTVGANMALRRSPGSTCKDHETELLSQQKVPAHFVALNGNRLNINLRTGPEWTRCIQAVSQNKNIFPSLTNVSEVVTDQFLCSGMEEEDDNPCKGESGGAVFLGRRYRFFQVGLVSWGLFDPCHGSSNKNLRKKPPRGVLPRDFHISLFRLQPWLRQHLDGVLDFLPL
Put plainly: SPR, mouse C2, pH 7.3; VWB = very weak binding, KD not determined. In general terms: SPR reads the build-up and loss of mass on a sensor chip optically.

Test [3] concerns the target T1, cynomolgus monkey C2. Nature of the test: SPR, mAb captured, cyno C2 analyte, pH 7.3.
Procedure: as §1, §2
For test [4], the target named is T1, cynomolgus monkey C2. Nature of the test: cell-based or functional assay.
In test [5] the target is T3, human complement C2 (human, UniProt P06681 21-752).
T3 construct: Recombinant full-length human C2 with C-terminal 8x His tag, purified from Expi293F supernatant; also called human C2; huC2
T3 sequence: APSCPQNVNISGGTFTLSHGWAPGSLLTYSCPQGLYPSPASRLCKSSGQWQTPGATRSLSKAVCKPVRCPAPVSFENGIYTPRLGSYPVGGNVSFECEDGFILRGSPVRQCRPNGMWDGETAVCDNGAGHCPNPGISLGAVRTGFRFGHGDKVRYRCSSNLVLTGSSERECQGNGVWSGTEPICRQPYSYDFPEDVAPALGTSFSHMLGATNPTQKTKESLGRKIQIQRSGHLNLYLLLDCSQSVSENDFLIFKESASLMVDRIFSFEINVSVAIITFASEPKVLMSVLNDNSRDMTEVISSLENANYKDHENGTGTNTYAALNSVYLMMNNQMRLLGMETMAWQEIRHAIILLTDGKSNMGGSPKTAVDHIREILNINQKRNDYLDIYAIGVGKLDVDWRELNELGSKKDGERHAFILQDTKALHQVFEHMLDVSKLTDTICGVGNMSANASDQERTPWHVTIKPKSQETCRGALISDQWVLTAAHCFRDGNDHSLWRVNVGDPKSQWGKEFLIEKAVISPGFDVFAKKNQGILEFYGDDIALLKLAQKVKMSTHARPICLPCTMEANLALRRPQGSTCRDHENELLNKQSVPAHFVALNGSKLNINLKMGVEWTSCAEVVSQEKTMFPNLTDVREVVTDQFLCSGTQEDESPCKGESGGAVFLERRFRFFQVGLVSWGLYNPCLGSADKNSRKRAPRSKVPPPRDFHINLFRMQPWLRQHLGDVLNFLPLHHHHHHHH
Put plainly: SPR, mAb captured, C2 analyte, MHAs buffer, pH 6.0, steady state.
Procedure: as §1
(§3) This buffer contains ammonium sulfate instead of sodium chloride.

Test [6] has as its target T3, human complement C2. Put plainly: SPR, mAb captured, C2 analyte, HBS-EP, pH 7.3.
In test [7] the target is T3, human complement C2. Nature of the test: SPR, mAb captured, C2 analyte, HBS-EP, pH 6.0.
Procedure: as §1
The pH dependent anti-C2 antibodies and their germlined versions were tested for their affinity to C2 at pH 7.3 (neutral pH) and pH 6.0 (early endosome pH) using the SPR methods described above in HBS-EP buffer.
Test [8] addresses T3, human complement C2. Nature of the test: SPR, mAb captured, C2 analyte, MHAs buffer, pH 7.3.
Procedure: as §1, §3
In test [9] the target is T3, human complement C2. Put plainly: cell-based or functional assay.
Test [10] deals with T3, human complement C2. Put plainly: SPR, mAb captured, C2 analyte, MHAs buffer, pH 5.8, steady state.
Procedure: as §1, §3
Test [11] deals with T1, cynomolgus monkey C2. Put plainly: cell-based or functional assay. This is another data set of the same source.
Test [12] has as its target T3, human complement C2. Put plainly: cell-based or functional assay. The source holds these as a separate data set.
Test [13] addresses T2, mouse C2. Nature of the test: SPR, mAb captured, mouse C2 analyte, pH 7.3.
Procedure: as §1, §2
The target in test [14] is T3, human complement C2. Put plainly: SPR, mAb captured, huC2 analyte, neutral pH; pH 7.
The target in test [15] is T3, human complement C2. Put plainly: SPR, mAb captured, huC2 analyte, pH 6.
In another test the target is T4, human FcRn/β2m (human, UniProt P55899 24-297; P61769 21-119).
T4 construct: Soluble FcRn/β2m injected as analyte over immobilised antibody; also called neonatal Fc receptor
Nature of the test: SPR, antibody immobilised, FcRn/β2m analyte, pH 6.0; pH 6.0.

As a reminder, the Kd is the equilibrium constant for the complex coming apart.

T4 sequence (P55899 24-297 limits assumed, chain 1 of 2): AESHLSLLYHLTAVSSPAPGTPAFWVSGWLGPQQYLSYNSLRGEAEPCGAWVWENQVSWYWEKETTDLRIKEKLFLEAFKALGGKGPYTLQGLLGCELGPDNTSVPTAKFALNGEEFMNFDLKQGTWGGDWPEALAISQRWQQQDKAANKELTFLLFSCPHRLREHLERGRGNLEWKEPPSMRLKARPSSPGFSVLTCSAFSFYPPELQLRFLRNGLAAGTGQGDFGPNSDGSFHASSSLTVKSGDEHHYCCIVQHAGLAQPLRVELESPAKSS
T4 sequence (P61769 21-119 limits assumed, chain 2 of 2): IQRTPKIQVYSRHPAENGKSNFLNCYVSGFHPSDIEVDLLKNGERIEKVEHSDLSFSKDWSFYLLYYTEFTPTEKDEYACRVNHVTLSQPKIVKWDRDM
Procedure for human FcRn/β2m: Anti-C2 mAbs (1 μg/mL at pH 5) were immobilized on a carboxylmethyldextran (CM5) sensorchip surface using standard EDC/NHS chemistry. Human and Cyno FcRn/β2m (40 μM) were prepared in running buffer (10 mM HEPES, 150 mM NaCl, 10 mM MES adjusted to either pH 6 or pH 7.3) and injected on the immobilized anti-C2 surface at concentrations ranging from 0.078 to 40 μM, prepared in two-fold dilutions in running buffer. Association and dissociation phases were monitored for 180 and 600 seconds, respectively. […] Double referenced sensorgrams were fitted to either a 1:1 kinetic model (pH 6), including a term for mass transport limitation or to a 1:1 steady state model (pH 7.3) where responses at the end of the association phase were plotted against respective concentrations.
Binding to both human and cynomolgus monkey FcRn was tested using the SPR methods described above.

B1: RF16-242G (antibody, V domains shown)
VH: EVQLVQSGAEVKKPGESLKISCKGSGYSFTSYWIGWVRQMPGKGLEWMGIIYPGDSDTRYSPSFQGQVTISADKSISTAYLQWSSLKASDTAMYYCARRGHYGDYFDYWGQGTLVTVSS
VL: SYELTQPPSVSVSPGQTARITCSGDALPKKYAYWYQQKSGQAPVLVIYEDRRRPSGIPERFSGSSSGTMATLTISGAQVEDEADYYCYSRDRAGNQRVFGGGTQLTVLG
notes: Germlined version of RF16-242
Turning to B1, the equilibrium dissociation constant (Kd) was 132 nM with cynomolgus monkey C2 [1]; 4.4 nM in the test with cynomolgus monkey C2 [3]; 12000 nM in the test with human complement C2 [5]; 6.7 nM with human complement C2 [6]; 14 nM with human complement C2 [7]; 558 nM with human complement C2 [8]. In addition, in the test with human complement C2 [10], the Kd is 47000 nM. Further, the binding result in the test with mouse C2 [2] is “binds”. Besides, the “IC50, inhibition of cynomolgus classical complement pathway (Wieslab assay)” value with cynomolgus monkey C2 [4] stood at 19.3 nM. Moreover, in the test with cynomolgus monkey C2 [4], the “IC50, inhibition of cynomolgus lectin complement pathway (Wieslab assay)” value was determined as 275 nM. Besides, in the test with human complement C2 [9], the “IC50, inhibition of human classical complement pathway (Wieslab assay)” value is 26.3 nM. Moreover, in the test with human complement C2 [9], the “IC50, inhibition of human lectin complement pathway (Wieslab assay)” value was found to be 3.19 nM. Besides, the “IC50, inhibition of cyno classical pathway (hemolysis assay)” value with cynomolgus monkey C2 [11] amounted to 302 nM. In addition, the “IC50, inhibition of human classical pathway (hemolysis assay)” value with human complement C2 [12] turned out to be 80.3 nM.

B2: RF16-191 (antibody, V domains shown)
VH: EVQLLESGGGLVQPGGSLRLSCAASGFTFSKYWMGWVRQATGKGLEWVSSIYSSGGWTYYADSVKGRFTISRDNSKNTLYLQMNSLRAEDTAVYYCARRPRSFSGSYYRAFDIWGQGTMVTVSS
VL: DIQMTQSPSSLSASVGDRVTITCRASQSITDYLNWYQQRPGKAPKLLIYAASSLQSGVPSRFSGSGSGTDFTLTISGLQPEDFATYYCQQSYSSSITFGQGTRLDLKR
notes: Human antibody from a phage display library
In the case of B2, the Kd with cynomolgus monkey C2 [1] is 71.3 nM; in the test with cynomolgus monkey C2 [3], 27.4 nM; with mouse C2 [13] it was 303 nM; with human complement C2 [6], 10.9 nM; with human complement C2 [7], 13 nM. Also, in the test with cynomolgus monkey C2 [4], the “IC50, inhibition of cynomolgus classical complement pathway (Wieslab assay)” value amounted to 11 nM. The “IC50, inhibition of cynomolgus lectin complement pathway (Wieslab assay)” value with cynomolgus monkey C2 [4] is 49.2 nM. In the test with human complement C2 [9], the “IC50, inhibition of human classical complement pathway (Wieslab assay)” value was 1.09 nM. Also, the “IC50, inhibition of human lectin complement pathway (Wieslab assay)” value in the test with human complement C2 [9] came to 0.857 nM. Moreover, the “IC50, inhibition of cyno classical pathway (hemolysis assay)” value with cynomolgus monkey C2 [11] was determined as 188 nM. For the same molecule, in the test with human complement C2 [12], the “IC50, inhibition of human classical pathway (hemolysis assay)” value is 29.4 nM.

B3: RF16-226 YEY (antibody, human IgG4 S228P, lambda)
heavy: EVQLVQSGAEVKKPGESLKISCKGSGYSFTSYWIGWVRQMPGKGLEWMGIIYPGDSDTRYSPSFQGQVTISADKSISTAYLQWSSLKASDTAMYYCARRFSYSSGWDMWGQGTLVTVSSASTKGPSVFPLAPCSRSTSESTAALGCLVKDYFPEPVTVSWNSGALTSGVHTFPAVLQSSGLYSLSSVVTVPSSSLGTKTYTCNVDHKPSNTKVDKRVESKYGPPCPPCPAPEFLGGPSVFLFPPKPKDTLYISRTPEVTCVVVDVSQEDPEVQFNWYVDGVEVHEAKTKPREEQFNSTYRVVSVLTVLHQDWLNGKEYKCKVSNKGLPSSIEKTISKAKGQPREPQVYTLPPSQEEMTKNQVSLTCLVKGFYPSDIAVEWESNGQPENNYKTTPPVLDSDGSFFLYSRLTVDKSRWQEGNVFSCSVMHEALHYHYTQKSLSLSLGK
light: SYELTQPPSVSVSPGQTARITCSGDALTSKYVAWYQQKSGLAPLLVIYEDTRRPSGIPAKFSGSSSGSVATLTISGAHGDDEADYYCYSTDASGHQRVFGGGTKLTVLSQPKAAPSVTLFPPSSEELQANKATLVCLISDFYPGAVTVAWKADGSPVKAGVETTKPSKQSNNKYAASSYLSLTPEQWKSHRSYSCQVTHEGSTVEKTVAPTECS
For B3, the Kd is ~9 nM with human complement C2 [14] and ~80 nM in the test with human complement C2 [15].

B4: RF16-226 YTE (antibody, human IgG4 S228P, lambda)
heavy: B3 heavy with S253T, T255E, E285N, Y433N
light: B3 light
Take B4: the Kd with human complement C2 [14] was ~9 nM; with human complement C2 [15] it was ~80 nM.

B5: RF16-226 YPY (antibody, human IgG4 S228P, lambda)
heavy: B3 heavy with E285N, V307P
light: B3 light
As to B5, the Kd with human complement C2 [14] was ~9 nM; with human complement C2 [15], ~80 nM.

B6: RF16-226 M252Y, S254T, T256E (antibody, human IgG4 S228P, lambda)
heavy: B3 heavy with S253T, T255E, E285N, Y433N
light: B3 light
Regarding B6, in the test with human FcRn/β2m, the dissociation constant Kd amounted to 680 nM.
